Experimental data taken from PMC5477135, “Imaging of αvβ3 integrin expression in experimental myocardial ischemia with [^68Ga]NODAGA-RGD positron emission tomography” (Journal of Translational Medicine, 2017).
Marks after values point to notes of the source that are not given here.

Legend:
[1] = in vivo; conditions: Finnish landrace, pig, iv, total radioactivity
Description: (§1) Coronary stenosis was created in 11 domestic, 3-month old pigs weighing 30–35 kg by implanting a bottleneck stent in the proximal LAD coronary artery as described previously. In addition, a sham group of 4 pigs underwent a catheterization procedure without the stent implantation. Myocardial [^68Ga]NODAGA-RGD uptake was evaluated by PET 13 ± 4 days after the stent implantation. […] Three pigs without a perfusion defect during adenosine stress were considered as procedural failures and excluded from further in vivo analyses.
(§2) Then a [^68Ga]NODAGA-RGD PET was performed with an ECAT EXACT HR+ scanner (Siemens-CTI, Knoxville, TN, USA). The studies were started with a 10 min transmission scan. The dynamic scanning started at the same time as 310 ± 43 MBq (230–400 MBq) of [^68Ga]NODAGA-RGD was injected via the ear vein. The acquisition time frames were as follows: 18 × 10 s, 4 × 30 s, 2 × 120 s, 1 × 180 s, 4 × 300 s, 3 × 600 s (total duration 62 min). The acquired [^68Ga]NODAGA-RGD PET data were corrected for scatter, random counts, and dead time and iteratively reconstructed with ordered-subsets expectation maximization (OSEM) algorithm using 2 iterations and 32 subsets. The whole transaxial field of view (70 cm) was reconstructed in 256 × 256 matrix yielding to pixel size of 2.57 mm × 2.57 mm. The device produces 63 axial planes with a slice thickness of 2.43 mm.
(§3) For quantification of [^68Ga]NODAGA-RGD uptake in the myocardium, the [^15O]water images and the [^68Ga]NODAGA-RGD images were co-registered using the high blood pool activity of the [^68Ga]NODAGA-RGD as a landmark (Fig. 1). The myocardial contours from the [^15O]water images were copied to the co-registered [^68Ga]NODAGA-RGD data. Then, the polar maps of [^68Ga]NODAGA-RGD uptake expressed as standardized uptake value (SUV) (time frame 52–62 min after injection) in the LV myocardium were generated using matching image orientation and sampling points. The region of interest (ROI) defining the ischemic area was copied from the [^15O]water polar maps to measure [^68Ga]NODAGA-RGD uptake in this region. The septum was excluded from the measurements to prevent spillover from the blood in the right ventricle. The mean and maximum SUVs were determined from the ischemic area. In order to measure the SUVs, ROI was modified to include only the mid-myocardium in order to avoid spill-over from blood. The maximum SUV within the ROI was determined from area showing visually the highest uptake. One segment in the posterolateral wall (segment 11) that was always outside the ischemic area was used to measure [^68Ga]NODAGA-RGD uptake in the remote myocardium. The ischemic-to-remote SUV ratio was calculated in the ischemic area and remote myocardium.

[2] = tested on: αvβ3 integrin; assay: in vivo; conditions: pig
Description: as §1, §2, §3

[3] = tested on: αvβ3 integrin; conditions: pig, in vivo
From the text: Subsequently, the pigs were euthanized and their hearts were excised. Based on 1% 2,3,5-triphenyltetrazolium chloride (TTC) (Sigma-Aldrich, Saint Louis, MO, USA) staining, tissue samples were obtained from the injured ischemic (TTC negative) and adjacent viable ischemic (TTC positive) myocardium as well as from the remote non-ischemic myocardium. Autoradiography of myocardial tissue sections was used to compare [^68Ga]NODAGA-RGD uptake with the histology, αvβ3 integrin expression and CD31 on endothelial cells. Immediately after the PET scanning, the animals were sacrificed by an i.v. injection of potassium chloride (B. Braun Medical Oy, Helsinki, Finland). The heart was excised, the LV was cut into 4 short axis slices from base to apex that were incubated for 15 min in 1% TTC (Sigma-Aldrich, Saint Louis, MO, USA), diluted in phosphate-buffered saline (pH 7.4) at 37 °C, photographed from both sides and the presence of non-viable ischemic area was confirmed visually. Based on the TTC staining, transmural samples containing non-viable and immediately adjacent viable myocardium were collected from the LV wall corresponding to the ischemic area in PET images. Another sample was obtained from the posterior LV wall representative of the remote region (segment number 11). Myocardial samples and a blood sample were weighed and measured for radioactivity using the gamma counter (Wizard). The radioactivity concentration was expressed as standardized uptake values (SUV = ([tissue radioactivity/tissue weight]/[total given radioactivity/animal body weight])).

[4] = tested on: αvβ3 integrin; conditions: pig, in vivo; remark: listed apart in the source
From the text: Subsequently, the pigs were euthanized and their hearts were excised. Based on 1% 2,3,5-triphenyltetrazolium chloride (TTC) (Sigma-Aldrich, Saint Louis, MO, USA) staining, tissue samples were obtained from the injured ischemic (TTC negative) and adjacent viable ischemic (TTC positive) myocardium as well as from the remote non-ischemic myocardium. Autoradiography of myocardial tissue sections was used to compare [^68Ga]NODAGA-RGD uptake with the histology, αvβ3 integrin expression and CD31 on endothelial cells. Tissue samples were frozen in isopentane mixed with dry ice and cut into serial 40 and 7 µm sections for autoradiography and immunohistochemical stainings respectively, using a cryomicrotome. Tissue sections of 40 μm thickness were immediately exposed on a phosphor imaging plate (BAS-TR2025, Fuji Photo Film Co. Ltd., Tokyo, Japan) for 2 h. The distribution of radioactivity on the plate was visualized and quantified using a Fluorescent Image Analyzer (Fujifilm FLA-5100, Fuji Photo Film Co. Ltd., Tokyo, Japan). Autoradiographs and hematoxylin & eosin (HE) staining images of the same sections were co-registered and [^68Ga]NODAGA-RGD accumulation was measured by drawing ROIs covering remote myocardium, and either viable or injured ischemic myocardium using TINA™ 2.10f software (Raytest Isotopenmessgeräte GmbH., Straubenhardt, Germany). Results were expressed as photostimulated luminescence per square millimetre (PSL/mm^2) and normalized for the injected radioactivity dose, animal weight and the radioactivity decay. Serial tissue sections of 7 μm were stained with H&E for general histology, Masson’s trichrome for differentiation myocytes and collagenous scar, and immunohistochemistry with antibodies against of CD31 on endothelial cells (dilution 1:250, Thermo Scientific, Cheshire, UK), αvβ3 integrin (dilution 1:200, Millipore, Temecula, CA, USA) and α-smooth muscle actin on myofibroblasts (dilution 1:30,000, Sigma-Aldrich, St. Louis, MO, USA). […]

[5] = in vitro; format: in vitro ADME; conditions: plasma
Description: To evaluate species-dependent differences, the [^68Ga]NODAGA-RGD binding to human, pig and rat plasma proteins was measured using in vitro assay as described previously.

[6] = in vivo; conditions: pig, iv, total radioactivity
Description: During the [^68Ga]NODAGA-RGD PET imaging, blood samples (2 ml) were obtained into heparinized tubes from the femoral artery 2, 5, 10, 20, 30, 40, 50 and 60 min after the injection of [^68Ga]NODAGA-RGD for the measurements of total radioactivity, radiometabolites (proportion of authentic tracer), and plasma-to-blood ratio. The radioactivities of whole blood and blood plasma were measured using a gamma counter (1480 Wizard 3″; PerkinElmer, Turku, Finland).

In the case of `N=C(N)NCCC[C@@H]1NC(=O)[C@H](CCCCNC(=O)CCC(C(=O)O)N2CCN(CC(=O)O)CCN(CC(=O)O)CC2)NC(=O)[C@@H](Cc2ccc(O)cc2)NC(=O)[C@H](CC(=O)O)NC(=O)CNC1=O` (stereo partly shown) [[^68Ga]NODAGA-RGD, metal not drawn], the SUV [1] is reported as 1.3 ± 0.2 SUV, the “average myocardial uptake in the ischemic area higher than in the remote myocardium” value [2] is reported as 26% and the “average uptake in the LV myocardium (SUV)” value [2] is reported as 0.42 ± 0.10 SUV. For the same compound, the “uptake in anteroseptal wall (segments 7 and 13) (SUV)” value [2] was 0.39 ± 0.11 SUV, the “uptake in posterolateral wall (segment 11) (SUV)” value [2] was 0.36 ± 0.078 SUV and the “Injured area SUVMax” value ([2]; iv) was 0.80 ^† SUV. The “Ischemic area SUVMean” value ([2]; iv) was 0.61* SUV, the “radioactivity in tissue sample from injured myocardium (SUV)” value [3] was 0.79 ± 0.21 SUV and the “radioactivity in tissue sample from remote myocardium (SUV)” value [3] was 0.49 ± 0.21 SUV. For the same compound, the “radioactivity in tissue sample from viable ischemic myocardium (SUV)” value [3] was 0.49 ± 0.17 SUV, the “mean uptake by autoradiography, injured area” value [4] was 4.6 ± 2.1 PSL/mm^2 and the “mean uptake by autoradiography, remote area” value [4] was 1.8 ± 0.61 PSL/mm^2. For the same compound, the “mean uptake by autoradiography, viable ischemic area” value [4] was 2.2 ± 0.85 PSL/mm^2, the fraction unbound ([5]; pig) was 0.93 ± 0.017 and the fraction unbound ([5]; rat) was 0.94 ± 0.011. The tissue to tissue ratio [6] was 1.4 ± 0.1.
